From article PMC7371702
Numbering of substitutions follows the chain as printed. Numbers in names are those of the source.

Assays:
[1] = biological target: YFP-tagged α7 nicotinic acetylcholine receptor (human CHRNA7 with YFP fused into the M3-M4 loop) (human) (UniProt P36544)
[2] = biological target: YFP-tagged α7 nicotinic acetylcholine receptor (human CHRNA7 with YFP fused into the M3-M4 loop) (human) (UniProt P36544); remark: listed apart in the source

Chain of UniProt P36544 (P36544 23-502): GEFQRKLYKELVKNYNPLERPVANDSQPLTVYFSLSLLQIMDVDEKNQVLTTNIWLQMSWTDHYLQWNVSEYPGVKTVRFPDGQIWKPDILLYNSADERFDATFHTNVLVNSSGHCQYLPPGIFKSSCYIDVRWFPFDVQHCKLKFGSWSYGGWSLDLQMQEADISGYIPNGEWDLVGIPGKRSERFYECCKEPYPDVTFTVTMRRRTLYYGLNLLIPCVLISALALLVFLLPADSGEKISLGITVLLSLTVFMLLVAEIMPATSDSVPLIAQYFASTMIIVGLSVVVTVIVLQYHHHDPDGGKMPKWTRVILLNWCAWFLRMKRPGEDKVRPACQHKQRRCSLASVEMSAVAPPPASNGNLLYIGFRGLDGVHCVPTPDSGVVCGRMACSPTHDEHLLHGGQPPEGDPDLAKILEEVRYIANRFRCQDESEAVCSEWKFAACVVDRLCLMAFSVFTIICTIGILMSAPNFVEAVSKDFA

B1: Soluble streptavidin-binding peptide (SBP)-tagged mouse Ly6H (natural protein)
chain: LWCQDCTLANSSHCAPKQCQPTDTVCASVRITDPSSSRKDHSVNKMCASSCDFVKRHFFSDYLMGFINSGILKVDVDCCEKDLCN
- inhibition of ligand-evoked α7 nAChR current in TARO cells by exogenously added soluble Ly6H-SBP (2.5 μM) [1]: 14%
- inhibitory ratio: post-stimulation peak amplitude divided by pre-stimulation peak amplitude of choline (30 μM) + PNU120596 (1 μM)-evoked current in TARO cells, 2.5 μM soluble protein applied for 3 min [2]: 82.7%

B2: Soluble SBP-tagged mouse Ly6H R38A mutant (natural protein)
chain: B1 chain with R38A
- inhibitory ratio: post-stimulation peak amplitude divided by pre-stimulation peak amplitude of choline (30 μM) + PNU120596 (1 μM)-evoked current in TARO cells, 2.5 μM soluble protein applied for 3 min [2]: 100%
